Source: patent US12269880B2, “LAG3 binding peptides” (Leidos, Inc., priority 2019, dated 2025)
Where “and” joins values, the source holds several entries; their conditions need not be identical. Equal entries are not always repeated.

Experiments:
[1] = biological target: T1, soluble recombinant human LAG3 (Homo sapiens, UniProt P18627); test: Clonal phage ELISA after phage display bio-panning; assay type: binding; conditions: for Clonal Phase ELISA uncoated signal: uncoated (background)
T1 construct: soluble recombinant human LAG3
T1 sequence (P18627 23-450 limits assumed): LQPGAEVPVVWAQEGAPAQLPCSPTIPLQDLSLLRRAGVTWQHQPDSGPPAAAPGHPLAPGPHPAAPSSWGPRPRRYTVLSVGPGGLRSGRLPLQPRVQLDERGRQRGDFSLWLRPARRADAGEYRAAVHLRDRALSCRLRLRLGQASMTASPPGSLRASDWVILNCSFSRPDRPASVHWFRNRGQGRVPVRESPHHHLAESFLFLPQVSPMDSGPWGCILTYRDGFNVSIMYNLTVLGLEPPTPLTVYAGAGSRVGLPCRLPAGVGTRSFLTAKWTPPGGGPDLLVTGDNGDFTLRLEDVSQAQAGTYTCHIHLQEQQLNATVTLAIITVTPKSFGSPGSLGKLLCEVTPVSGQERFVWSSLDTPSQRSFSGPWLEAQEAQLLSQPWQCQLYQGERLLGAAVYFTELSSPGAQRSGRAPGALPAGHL
Excerpt: The TriCo-20™, TriCo-16™, Ph.D.-12™, and Ph.D. C7™ Phage Display Peptide Libraries (Creative Biolabs, 45-1 Ramsey Road, Shirley, NY 11967) were screened by performing several rounds of bio-panning to identify binders of soluble recombinant human LAG3.

LAG3/MHC-II interaction = biological target: T2, LAG3/MHC-II interaction (Homo sapiens, UniProt P18627); test: HTRF LAG3/MHC-II binding assay (Cisbio)
T2 construct: purchased Cisbio US Inc
T2 sequence (P18627 23-450 limits assumed): T1 sequence (P18627 23-450 limits assumed)
Excerpt: FIG. 2 is a graph showing the results of a homogeneous time-resolved fluorescence (HTRF) assay for peptide LAG3-11. Reference Ab-LAG3 is an anti-LAG3 antibody. OVA, the ovalbumin (OVA) peptide (ISQAVHAAHAEINEAGR, SEQ ID NO:8). “HTRF ratio” is the emission at 665 nm (acceptor)/emission at 620 nm (donor) multiplied by a factor or 10^4.
A homogeneous time-resolved fluorescence (HTRF) LAG3/MHC-II binding assay (Cisbio US Inc.) was used to measure the interaction between MHC-II and LAG3 in the presence of peptides. In this assay, the interaction between Tag1-LAG3 and Tag2-MHC-II is detected by using anti-Tag1-Terbium (HTRF donor) and anti-Tag2-XL665 (HTRF acceptor). When the donor and acceptor antibodies are brought into close proximity due to LAG3 and MHC-II binding, excitation of the donor antibody triggers fluorescent resonance energy transfer (FRET) towards the acceptor antibody, which in turn emits specifically at 665 nm. This specific signal is directly proportional to the extent of LAG3/MHC-II interaction. Thus, an agent that blocks the interaction between LAG3 and MHC-II will cause a reduction in HTRF ratio.
An anti-human LAG3 antibody (Novoprotein #GMP-A092, Lot 0331158, 500 nM) was tested in the assay at an eleven-point, serially diluted semi-log dose response curve starting at 100 nM and served as a positive control. The ovalbumin peptide was used as a negative control. Peptides were reconstituted at a concentration of 20 mM in […] and tested at an eleven-point dose response curve starting at 100 µM followed by 4-fold dilutions. […]

human LAG3/FGL1 = biological target: T3, human LAG3/FGL1 (Homo sapiens, UniProt P18627); test: Human LAG3/FGL1 TR-FRET binding assay (BPS Bioscience)
T3 construct: purchased BPS Bioscience
T3 sequence (P18627 23-450 limits assumed): T1 sequence (P18627 23-450 limits assumed)
Protocol: The peptides were tested using a human LAG3/FGL1 TR-FRET binding assay (BPS Bioscience) carried out according to the manufacturer's instructions.
Peptide stocks of LAG3-11, LAG3-42, LAG3-48, LAG3-51, LAG3-54, LAG3-56, LAG3-60 and OVA were prepared at 1 mM followed by a 1:5 dilution in plate reactions. LAG3-11 and OVA were tested at 200, 50, 13, 3, 0.8, 0.2, 0.05, and 0.01 μM. The other peptides were tested at 200, 50, 13, and 3 μM. A neutralizing anti-human LAG3 antibody (BPS Bioscience Cat. #71219) was used as a positive control.
Reaction mixes were incubated 1 hr at RT before development. After development, plate was read in a Tecan M1000 TR-FRET instrument. Percent activity was calculated as follows: % Activity=100×[(sample−minimum)/(maximum−minimum)]

[2] = LOG [Compound] M tested for peptide −4, single replicates
[3] = LOG [Compound] M tested for peptide −4.60206, single replicates
[4] = LOG [Compound] M tested for peptide −5.20412, single replicates
[5] = LOG [Compound] M tested for peptide −5.80618, single replicates
[6] = LOG [Compound] M tested for peptide −6.40824
[7] = LOG [Compound] M tested for peptide −7.0103, single replicates
[8] = LOG [Compound] M tested for peptide −7.61236, single replicates
[9] = LOG [Compound] M tested for peptide −8.21442, single replicates
[10] = LOG [Compound] M tested for peptide −8.81648, single replicates
[11] = LOG [Compound] M tested for peptide −9.41854, single replicates
[12] = LOG [Compound] M tested for peptide −10.0206
[13] = LOG [Compound] M tested for peptide −10.6227

Row | Clonal Phase ELISA coated signal [1] | Clonal Phase ELISA uncoated signal [1] | HTRF ratio (LAG3/MHC-II interaction; [2]) | HTRF ratio (LAG3/MHC-II interaction; [3]) | HTRF ratio (LAG3/MHC-II interaction; [4]) | HTRF ratio (LAG3/MHC-II interaction; [5]) | HTRF ratio (LAG3/MHC-II interaction; [6]) | HTRF ratio (LAG3/MHC-II interaction; [7]) | HTRF ratio (LAG3/MHC-II interaction; [8]) | HTRF ratio (LAG3/MHC-II interaction; [9]) | HTRF ratio (LAG3/MHC-II interaction; [10]) | HTRF ratio (LAG3/MHC-II interaction; [11]) | HTRF ratio (LAG3/MHC-II interaction; [12]) | HTRF ratio (LAG3/MHC-II interaction; [13]) | Sequence | inhibition of the interaction between human LAG3 and FGL1 (human LAG3/FGL1)
1 | 0.529 | 0.101 | 4194 and 4083 and 4373 | 6880 and 7058 and 7142 | 8218 and 8349 and 8414 | 8791 and 8658 and 8464 | 9040 and 9185 and 9082 | 8147 and 9275 and 9111 | 8935 and 9303 and 9093 | 8765 and 9591 and 9178 | 8856 (2×) and 8869 | 9050 and 9029 and 9176 | 9022 and 8887 and 8540 | 8885 and 9204 and 8617 | HIQNWSYWLNQDMMNQQVWKS (LAG3-56 peptide) | inhibit the interaction between human LAG3 and FGL1
2 | 0.378 | 0.084 | 7234 and 7037 and 7142 | 8389 and 8097 and 8045 | 8629 and 8765 and 8733 | 9281 and 8905 and 8572 | 9189 and 8945 and 8784 | 9432 and 8649 and 9072 | 9209 and 8787 and 9109 | 9407 and 8205 and 9247 | 9579 and 9134 and 8703 | 9137 and 8550 and 8958 | 8860 and 8937 and 8907 | 9016 and 8914 and 9210 | DWNFQQWDWKKHNHLDSHVV (LAG3-42 peptide) | –
3 | 0.234 | 0.076 | 3058 and 2773 and 2875 | 6649 and 6521 and 6468 | 7908 and 8071 and 8322 | 8723 and 8946 and 8748 | 9265 and 8583 and 8662 | 8098 and 9193 and 9017 | 8762 and 9360 and 9173 | 8950 and 8608 and 8357 | 8834 and 8187 and 8957 | 8867 and 8809 and 8630 | 8784 and 8779 and 8696 | 9082 and 9104 and 9298 | KVWQVPQDTQHWLSPNFYSV (LAG3-51 peptide) | –
4 | 0.330 | 0.091 | 2986 and 3079 | 5934 and 5959 and 5991 | 8233 and 7988 and 7918 | 8525 and 8398 and 8342 | 8614 and 8929 and 9290 | 9142 and 8745 and 8892 | 8987 and 8983 and 9320 | 9275 and 8931 and 9366 | 9059 and 9248 and 8887 | 8772 and 8594 and 9169 | 8924 and 8349 and 8904 | 8795 and 9240 and 9350 | HESGSVPHPWQFFTHYVS (LAG3-60 peptide) | –

Further lines, the sequence ahead of its results:

Row | Sequence | Clonal Phase ELISA coated signal [1] | Clonal Phase ELISA uncoated signal [1] | HTRF ratio (LAG3/MHC-II interaction; [2]) | HTRF ratio (LAG3/MHC-II interaction; [3]) | HTRF ratio (LAG3/MHC-II interaction; [4]) | HTRF ratio (LAG3/MHC-II interaction; [5]) | HTRF ratio (LAG3/MHC-II interaction; [6]) | HTRF ratio (LAG3/MHC-II interaction; [7]) | HTRF ratio (LAG3/MHC-II interaction; [8]) | HTRF ratio (LAG3/MHC-II interaction; [9]) | HTRF ratio (LAG3/MHC-II interaction; [10]) | HTRF ratio (LAG3/MHC-II interaction; [11]) | HTRF ratio (LAG3/MHC-II interaction; [12]) | HTRF ratio (LAG3/MHC-II interaction; [13]) | inhibition of the interaction between human LAG3 and FGL1 (human LAG3/FGL1)
5 | ACGPGSFGDCGGG (LAG3-54 peptide) | 0.417 | 0.103 | 2283 and 4122 and 3912 | 7055 and 6709 and 6833 | 8691 and 8561 and 8512 | 9156 and 9205 and 9142 | 9161 and 9048 and 8773 | 9105 and 9141 and 9004 | 8674 and 9031 and 9075 | 8996 and 8645 and 8867 | 8130 and 8918 and 8630 | 8942 and 8930 and 8755 | 8344 and 9203 and 8748 | 9100 and 9262 and 8921 | –
6 | ISQAVHAAHAEINEAGR (listed as Gallus gallus) [OVA peptide, reference compound] | – | – | 7154 and 8492 and 8909 | 8449 and 8472 and 8683 | 9015 and 8616 and 8579 | 9180 and 8833 and 9374 | 9189 and 8634 and 9280 | 8380 and 8654 and 8970 | 9015 and 8776 and 8568 | 9219 and 8624 and 8987 | 8684 and 8724 and 8639 | 8625 and 8396 and 8788 | 8356 and 8986 and 8457 | 8633 and 9086 and 8892 | –
7 | FYSPNHEEYHDWNVDSSVNE (LAG3-48 peptide) | 0.227 | 0.094 | 3507 and 2809 and 3028 | 5662 and 5088 and 5724 | 8301 and 8213 and 8200 | 8663 and 9082 and 9045 | 9264 and 9194 and 9135 | 8727 and 9103 and 9142 | 8936 and 9357 and 9297 | 9082 and 9139 and 9095 | 8708 and 9153 and 8757 | 8564 and 8922 and 8442 | 8765 and 9097 and 8602 | 8663 and 8904 and 9303 | –
